Consider two substances from US20100297662A1.

In test [1] the target is amylospheroid 42 (Homo sapiens (Human)) (UniProt P05067). Nature of the test: SPR, ratio of Kd values (40Aβ against 42ASPD). Background: Surface plasmon resonance follows binding to a sensor surface in real time, without labels.
Test [2] has the same target. The test can be described thus: SPR, ratio of Kd values (42 fibril against 42ASPD).
Test [3] has as its target Aβ fibril (42 fibril) prepared from 42Aβ (Homo sapiens (Human)) (UniProt P05067). Nature of the test: SPR (BIAcore), antigen on CM5 chip, antibody in solution.
Test [4] addresses amylospheroid 42 (Homo sapiens (Human)) (UniProt P05067). Described as above.
Test [5] addresses monomeric amyloid β40-protein (Aβ1-40). The test is described as above.
The target of test [6] is Aβ fibril prepared from amyloid β40 (Homo sapiens (Human)) (UniProt P05067). Nature of the test: SPR (BIAcore 3000), antigen on CM5 chip, antibody in solution.
Test [7] addresses amylospheroid 42 (Homo sapiens (Human)) (UniProt P05067). The test is described as above.
Test [8] concerns the target monomeric amyloid β40-protein (Aβ1-40). Described as above.
The target of test [9] is monomeric amyloid β42-protein (Aβ1-42). The description is as above.
Test [10] concerns the target ASPD (amylospheroid; Aβ species not stated). Nature of the test: competitive ELISA: antibody pre-reacted with ASPD in solution, then ASPD solid-phase plate. For orientation: An ELISA detects its analyte on a solid surface through an enzyme-linked reagent.
In test [11] the target is commercially available amyloid precursor protein sAPPα (Sigma) (UniProt P05067). Nature of the test: competitive ELISA: antibody pre-reacted with sAPPα in solution, then ASPD solid-phase plate.

Sequence of monomeric amyloid β40-protein (Aβ1-40) (peptide, as listed by the source): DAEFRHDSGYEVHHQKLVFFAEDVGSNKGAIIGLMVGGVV
Sequence of monomeric amyloid β42-protein (Aβ1-42) (peptide, as listed by the source): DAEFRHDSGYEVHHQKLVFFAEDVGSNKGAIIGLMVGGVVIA

Take “anti-Aβ antibody 3D6 (US 20030165496 A1), produced as a mouse IgG2b/κ molecule”: the fold higher affinity with ASPD than with amyloid β-monomer in test [1] was 34 times. Also, the fold higher affinity with ASPD than with amyloid fibril in test [2] is 2 times. The Kd in test [3] turned out to be 0.231 nM; in test [4], 0.115 nM; in test [5], 3.93 nM.
On to “commercially available anti-amyloid β antibody 6E10 (Senetek)”, for which the Kd in [6] was found to be 1.33 nM; in test [7], 18.3 nM; in [8], 37.3 nM; in test [9], 17.2 nM. Also, the IC50 came out at 3.7 nM in [10] and 16.1 nM in test [11].

As usually defined, the Kd is the equilibrium constant for the complex coming apart. Higher therefore signals a looser complex. For orientation: IC50 means the point on the concentration scale where inhibition reaches its midpoint. Lower therefore signals greater potency.
